In article PMC10450195, “Histone divergence in trypanosomes results in unique alterations to nucleosome structure” (Nucleic Acids Research, 2023):

T1: Trypanosoma brucei histone H2A (Trypanosoma brucei brucei, UniProt Q57YA3 2-134)
T1 construct: also called Tb H2A
T1 sequence: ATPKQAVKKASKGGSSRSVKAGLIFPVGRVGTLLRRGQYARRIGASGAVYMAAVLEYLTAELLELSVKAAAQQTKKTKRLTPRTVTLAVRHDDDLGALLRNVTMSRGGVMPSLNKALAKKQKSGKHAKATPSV

B1: Trypanosoma brucei histone H2B (natural protein, Trypanosoma brucei brucei)
chain: ATPKSTPAKTRKEAKKTRRQRKRTWNVYVSRSLRSINSQMSMTSRTMKIVNSFVNDLFERIAAEAATIVRVNRKRTLGARELQTAVRLVLPADLAKHAMAEGTKAVSHASS
notes: also called Tb H2B

How the values were obtained:
[1] = target: B1; assay: cryo-EM structure; conditions: both partners purified
[2] = target: T1, Trypanosoma brucei histone H2A; assay: cryo-EM structure; conditions: both partners purified

Row | Binder | binding result [1] | binding result [2]
1 | Trypanosoma brucei histone H4 (natural protein, also called Tb H4) not shown | binds | –
2 | B1 | – | binds
